From article PMC11231238, “SPRING licenses S1P-mediated cleavage of SREBP2 by displacing an inhibitory pro-domain” (Nature Communications, 2024) come the findings set out here.

In the test the target is T1, FLAG-S1P_(ecto)-His10, matured C-form (human, UniProt Q14703 187-998).
T1 construct: human S1P (MBTPS1); expressed as IgK leader-FLAG-residues 23-998-His10; after autoproteolysis the His10-bearing C-form; The N-terminal FLAG tag leaves with the A-domain; also called WT S1P_(ecto); C-form of S1P_(ecto); source: HEK 293S GnTI- (BacMam baculovirus), secreted, purified (NiNTA, gel filtration); HEK 293T, transfected, secreted, in supernatant; not shown: His10, C-terminal, kept
T1 sequence (looked up): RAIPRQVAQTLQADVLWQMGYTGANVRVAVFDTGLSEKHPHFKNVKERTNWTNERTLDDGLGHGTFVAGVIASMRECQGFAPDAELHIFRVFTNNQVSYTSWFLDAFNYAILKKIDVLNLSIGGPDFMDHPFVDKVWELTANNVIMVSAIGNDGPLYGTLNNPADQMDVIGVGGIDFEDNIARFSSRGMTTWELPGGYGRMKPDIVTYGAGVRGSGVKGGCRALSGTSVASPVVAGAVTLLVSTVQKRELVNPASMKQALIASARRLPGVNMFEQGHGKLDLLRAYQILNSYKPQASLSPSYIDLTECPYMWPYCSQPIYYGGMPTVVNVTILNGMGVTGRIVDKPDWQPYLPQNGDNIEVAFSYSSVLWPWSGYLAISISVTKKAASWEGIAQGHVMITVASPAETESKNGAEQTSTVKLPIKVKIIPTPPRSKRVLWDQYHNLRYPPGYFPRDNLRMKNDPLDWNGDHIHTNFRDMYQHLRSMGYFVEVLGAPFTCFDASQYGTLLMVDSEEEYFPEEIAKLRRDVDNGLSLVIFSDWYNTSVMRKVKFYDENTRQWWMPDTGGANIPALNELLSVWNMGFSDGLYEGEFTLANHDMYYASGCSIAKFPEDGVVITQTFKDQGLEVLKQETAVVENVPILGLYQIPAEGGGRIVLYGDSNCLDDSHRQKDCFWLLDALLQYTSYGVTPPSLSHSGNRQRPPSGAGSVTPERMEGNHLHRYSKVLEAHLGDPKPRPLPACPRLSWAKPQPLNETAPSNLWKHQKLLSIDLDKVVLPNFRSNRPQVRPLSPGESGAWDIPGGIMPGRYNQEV
Description: pull-down; HEK 293T supernatants of co-transfected cells with 50 mM imidazole; NiNTA resin holds the His10 tag of S1P_(ecto), 1-2 h at 4 °C; washes in 150 mM NaCl, 50 mM HEPES-NaOH pH 7.5, 50 mM imidazole; elution with 300 mM imidazole; immunoblot anti-HA, anti-His, anti-FLAG. As to conditions: partners not purified. On the technique in general: In western blotting, separated proteins are transferred to a membrane and probed.

B1: cleaved A-domain of FLAG-S1P_(ecto)-His10 (domain or fragment, human, UniProt Q14703 23-137, looked up)
chain: DRLEKKSFEKAPCPGCSHLTLKVEFSSTVVEYEYIVAFNGYFTAKARNSFISSALKSSEVDNWRIIPRNNPSSDYPSDFEVIQIKEKQKAGLLTLEDHPNIKRVTPQRKVFRSLK
notes: human S1P (MBTPS1) A pro-domain, released by autoproteolysis from the construct FLAG-residues 23-998-His10; the construct begins at residue 23; in the cryo-EM map the density ends after K137 (cleavage at the B site); cleavage at the alternative B' site is possible too; also called A pro-domain; S1P A-domain; source: HEK 293S GnTI- (BacMam baculovirus), secreted, co-purified with S1P_(ecto) …
B1: the binding result was “binds”.
